# Reference: the DeepSol protein solubility set
# Test: soluble on expression in E. coli; label from the status in PepcDB or PDB records
row,Sequence,soluble on expression in E. coli
1,MKNVGFIGWRGMVGSVLMQRMVEERDFDAIRPVFFSTSQLGQAAPSFGGTTGTLQDAFDLEALKALDIIVTCQGGDYTNEIYPKLRESGWQGYWIDAASSLRMKDDAIIILDPVNQDVITDGLNNGIRTFVGGNCTVSLMLMSLGGLFANDLVDWVSVATYQAASGGGARHMRELLTQMGHLYGHVADELATPSSAILDIERKVTTLTRSGELPVDNFGVPLAGSLIPWIDKQLDNGQSREEWKGQAETNKILNTSSVIPVDGLCVRVGALRCHSQAFTIKLKKDVSIPTVEELLAAHNPWAKVVPNDREITMRELTPAAVTGTLTTPVGRLRKLNMGPEFLSAFTVGDQLLWGAAEPLRRMLRQLA,soluble
2,MGSDKIHHHHHHMTRNANKNNKECEKCWIFDLNQFKMITNSILEENTLVLEINQNYEVSVLMDYDVFLENGILTFKDFVNDNSKSAQVLTGSLKTGILNKMSQSISEGLLNKTTNRRTYYITEPTPLIGHTAFGLIDRGTNVIQVRGLSGCNINCPFCSVDEGIHSKSRKNDYYVDKDYLVSEYEKIADFKGYKKLEAHLDGQGEPSLYYPLPDLVQNLNEINSKNNGIVSIQTNGVHLTEKLIDDLEVAGLHRINLSINAMDEKFSKGLSGSKNYDIEKIMKIAEYIKNSKIHLLIAPLLLPNYNDEEFKKVLDFAVELEQKNPQNTINPITNKKNPIVGPQLCLTYQFGRKIPKMRVWDFPKFYNLLDVYHKEYLKDGINVDLEVPLHGFFGSHGRKRLPCPFKLNETISVTVLMDGRVNGEVIGASKNRVIQIIDCKTDINKLIGKRVKVKVLRVKDNVIVGSMVK,not soluble
3,MLSIKHLTKIYSGNKKAVDDISLDIQSGEFIAFIGTSGSGKTTALRMINRMIEATEGQIEIDGKDVRSMNPVELRRNIGYVIQQIGLMPHMTIKENIVLVPKLLKWTKEEKDKRAKELIKLVDLPESFLERYPAELSGGQQQRIGVVRALAAEQDIILMDEPFGALDPITRDTLQDLVKTLQRKLGKTFIFVTHDMDEAIKLADKICIMSEGKVVQFDTPDNILRHPANDFVRDFIGQNRLIQDRPNDKTVEGVMIKPITIQAEATLNDAVHIMRQKRVDTIFVVDSNNHLLGFLDIEDINQGIRGHKSLRDTMQQHIYTVQIDSKLQDSVRTILKRNVRNVPVVDDQQRLVGLITRANVVDIVYDTIWGDSEDTVQTEHVGEDTASSKVHEQHTTNVKVRDIGDDKS,not soluble
4,MKIMGFYSQVILPRLLDWSLSDPTLATYRQELLTDVTGEVLEIGFGTGLNLAYYPSHIHKITTVDVNPGMNTIAQKRIDDSGIKVQQLLLSGENLPMADNTFDSVVSTWTLCSIANVEQALQEVYRVLKPGGKFFFLEHGLSNKPNVQVWQNRLTPIQKVLADGCHLNRNIQQLVEQSFDHVELKRFTPENFPDLMAHFYKGCATKKSILEHHHHHH,soluble
5,MSVNFSPCVLIPCYNHGAMMPGVLARLKPFNLPCIVVDDGSDATTQQQLDSLLAEQPGVTLIRLAENAGKGAAVMRGLQAAADAGFSHAVQVDADGQHAIEDIPKLLALAEQQPAALISGQPIYDDSIPRSRLYGRWVTHVWVWIETLSLQLKDSMCGFRVYPVAPTLQLAKHATIGKRMDFDTEVMVRLYWQGNTSYFVPTRVTYPLDGLSHFDALKDNVRISLMHTRLFFGMLPRIPSLLMRRSSCHWARQSEVKGLWGMRLMLLVWRLLGRTAFSALLYPVVGVYWLTASRARKASQDWLARVRQHQPQAAKLNSYQHFLRFGNAMLDKIASWRGELQPGRDVLFAPGAEAALDVRDPRGKLLLASHLGDVEVCRALAKIQGYKTINALVFSENAQRFKQIMQEMAPQAGINLMPVTDIGPETAILLKEKLDNGEWVAIVGDRIAVNPQRGGDWRVCWSSFMGQPAPFPQGPFILASILRCPVNLIFALRQHGKLHIHCESFADPLQLPRGERQQALQNAIDHYAARLEHYALQSPLDWFNFFDFWQLPEIQDKE,not soluble
6,MEYKKILIRLLIAFAVLFSADFTYQSVEQTHQSHAAVNYYSKNQCTWWAFKRRAQVGKPVSNRWGNAKNWYYNARKSKYATGRTPRKFAVMQSTAGYYGHVAVVEQVYKNGSIKVSEYNFYRPLKYNTRVLSKKAARNFNYIYLEHHHHHH,not soluble
7,MYKLNLDIQAFLANDWQQAPKVFKGAFPDFEDPIAADELAGLACEEEVSSRVVVTKGNDWEVISGPFEDYDRFGETHWQLLVQAVNHWYPESQPLVEAFRFLPDWRFDDLMVSFATPQGGVGPHIDNYDVFIIQGEGQRRWTVGPKGNYQRRGGVTTSPLIEDFEPIIDVVLEKGDVLYIPPGFPHQGETLTLALSYSMGYRAPSQQELAGQIADQLMDEDKGHKRFIAVDGAASHGTVSLAEQQGIMQLIRDLCNDTDNVVKVLGKLLSQNRFDLDIQEDESIDADALVEALNEGAVLMRIGGLKVLKMEGDSQARLFVAGESVIIEGASEEELIEVSNSVNVNAELAQLPHWQGFFVQMLQKGYFYLGED,soluble
8,MSASYQTIEHDVPQSYRDKILKWNGWGYSDSQFAINKDGHVTFTGDKYEISGKVMPHFRPWFENYLGIDLGFVSPAQKLSDVIIDAPVENEDIIEFLQENKISFSNEARIRLMRGHGHTVHDMINLREGKIPRLPDIVVWPKSEHEIVKIIEGAMSHNCAIIPIGGGTSVTNALDTPETEKRAVISMDMALLDKILWIDRENLTCRAQAGIVGQSLERQLNKKGFTCGHEPDSIEFSTLGGWVSTRASGMKKNKYGNIEDLVVHLNFVCPKGIIQKQCQVPRMSSGPDIHQIILGSEGTLGVVSEVTIKIFPIPEVKRFGSFVFPNFESGVNFFREVAIQRCQPASLRLMDNDQFVMGQALKVASDSWWADLKSSVSKMYITSWKGFKVDEICAATCVYEGNREEVDQHEERLNKLAEQFHGVVGGAENGQYGYRLTFAIAYLRDLGMNHGVLGESFETSVPWDKVLSLCRNVKELMKREAKAQGVTHPVLANCRVTQVYDAGACVYFYFGFNARGLKNGLEVYDRIETAARDEIIACGGSISHHHGVGKIRKQWMLTTNGAVGIALLKAIKSELDPANIFASANLIDIIGSPHCKL,not soluble
9,MEVEVEKDCRTECSREREIEKERSKDEFHGLIEIDGECMQSGNRKWKRIDSAVKVAKKEKKKKMKDEEKKKEDEDNLQHTIQQSE,soluble
10,MNVNRLLIVGAGAFGREVHAWLLDWVKLNPGWVIAGFINDGPGSIARFDHYPAVVSSVEGYEPGPEDYLVCAIAKPADKRLVVEKLLGKGARFFTLIHPSVIMGENVVIGQGAVICPSTVLSVDLRIGAFVTLNIGCLVGHDADIGDFSTLSGHCDITGGVVLEEEVFMGTHASVLPNVKVGKQAVVGAGSVAIRNVAAGITVFGVPAKRISGLEHHHHHH,not soluble
11,SSLIKKIEENERKDTLNTLQNMFPDMDPSLIEDVCIAAASRIGPCVDALLSLSE,soluble
12,PFEPKIVAFVCTYCTYAGADLAGTSRLNYAPNVRIVRLPCTGRISPMFILKALQKGADSVLVSGCHPGDCHFTAGNYHARRRWTVFRALLSFTGIPEERIRFSWISAAEGAKFAELINEITDDTRKLG,not soluble
13,AIAITGETEPACVEDASQLAEQRNGAPVMEAGCAAVPVEANATKRGYWRQRTLHSWFIGRKPQRTCIAVDIDEVLAFFVPELCAFHNKRYGTRLQATDFHSYRFAEVWGGTDTDAIRKVHEFFRTPAFQELQPIPGAKQVLQSRLARFRFVVVTSRQLVIEQETRAWLDKHFSGIFEAIYLGNQWALHPNGEHGTGVGSAAQEPQRLFANRRRKSQVCKACGAAVLIDDLPHNLLDCSENGVFGVLFDFQGQYGWSKSPAFESKDIAVVHSWEAVGELLDRL,soluble
14,SAKAVRIGAEGYKLKLDGAVQEIDGRSVVLVDVDSITPLMFGGSMKEKAKLLDAKFLRKYYEENKDFFFLSTREEKKMFVTLQLAREYAELVDDQFLRGFFEKALESAQKAF,soluble
15,MQLEELINQHYSKLNDNDFHILKYILNHKHTCYHLGIDALAKACSVSRSSILRLAQKLGFSGYSEFRVFLKWEDQPEEGESMSFEKLLDDIEANLKFLRTKDMTDMCQLIDAADRIFVYGSGNAQKICARDLQRMFIPRHRYLILIEDTNEFNLMRDDFKVNDLFIIISLSGETPELIPQARMLSAKGIPFISITNLKNNVLAQLTPHNLYATSKPVTLSDRTEIVAFAPFFLVGEALFRAYVDYKEAEKNDNEMAGDPLEHHHHHH,soluble
16,MGKGKNKMHEPKNGRPQRGANGHSSRQNHRRMEMKYDNSEKMKFPVKLAMWDFDHCDPKRCSGKKLERLGLIKSLRVGQKFQGIVVSPNGKGVVCPDDLEIVEQHGASVVECSWARLEEVPFNKIGGKHERLLPYLVAANQVNYGRPWRLNCVEALAACFAIVGRMDWASELLSHFSWGMGFLELNKELLEIYQQCTDCDSVKRAEEEWLQKLEKETQERKSRAKEEDIWMMGNINRRGNGSQSDTSESEENSEQSDLEGNNQCIEYDSLGNAIRIDNMKSREAQSEESEDEESGSKENGEPLSYDPLGNLIR,not soluble
17,MGHHHHHHSHPLKMETSGMTTPSLKTDGGRRTATSPPPTTSQTIISTIPSTAMHTRSTAAPIPILPERGVSLFPYGADAGDLEFVRRTVDFTSPLFKPATGFPLGSSLRDSLYASQAGTLWPWWLRSGTMLTSPLVGGPHFIRNTRRSMVNTAC,not soluble
18,QVRQSPQSLTVWEGETTILNCSYEDSTFDYFPWYRQFPGKSPALLIAISLVSNKKEDGRFTIFFNKREKKLSLHITDSQPGDSATYFCAATGSFNKLTFGAGTRLAVSPY,soluble
19,RHMRIAVIGGGSSYTPELVKGLLDISEDVRIDEVIFYDIDEEKQKIVVDFVKRLVKDRFKVLISDTFEGAVVDAKYVIFQFRPGGLKGRENDEGIPLKYGLIGQETTGVGGFSAALRAFPIVEEYVDTVRKTSNATIVNFTNPSGHITEFVRNYLEYEKFIGLCNVPINFIREIAEMFSARLEDVFLKYYGLNHLSFIEKVFVKGEDVTEKVFENLKLKLSNIPDEDFPTWFYDSVRLIVNPYLRYYLMEKKMFKKISTHELRAREVMKIEKELFEKYRTAVEIPEELTKRGGSMYSTAAAHLIRDLETDEGKIHIVNTRNNGSIENLPDDYVLEIPCYVRSGRVHTLSQGKGDHFALSFIHAVKMYERLTIEAYLKRSKKLALKALLSHPLGPDVEDAKDLLEEILEANREYVKLG,soluble
20,MAARNAGTARPGGPNRTCQFKLVLLGESAVGKSSLVLRFVKGQFHEYQESTIGAAFLTQTVCLDDATIKFEIWDTAGQERYHSLAPMYYRGAQAAIVVYDITNQESFQKAKNWVKELQRQASPNIVMALAGNKADVANKRTVEYEEANAYAEDNALLFMETSAKTSMNVNDIFMAIAKKLPIGPAQGEPTGTVDMNQPQQQQKGSCCK,not soluble
21,MGKAKVPASKRAPSSPVAKPGPVKTLTRKKNKKKKRFWKSKAREVSKKPASGPGAVVRPPKAPEDFSQNWKALQEWLLKQKSQAPEKPLVISQMGSKKKPKIIQQNKKETSPQVKGEEMPAGKDQEASRGSVPSGSKMDRRAPVPRTKASGTEHNKKGTKERTNGDIVPERGDIEHKKRKAKEAAPAPPTEEDIWFDDVDPADIEAAIGPEAAKIARKQLGQSEGSVSLSLVKEQAFGGLTRALALDCEMVGVGPKGEESMAARVSIVNQYGKCVYDKYVKPTEPVTDYRTAVSGIRPENLKQGEELEVVQKEVAEMLKGRILVGHALHNDLKVLFLDHPKKKIRDTQKYKPFKSQVKSGRPSLRLLSEKILGLQVQQAEHCSIQDAQAAMRLYVMVKKEWESMARDRRPLLTAPDHCSDDA,soluble
22,MRDLSHALGSGEPYPGDPPAAVTPHATMAADGYRVSAVACSTHSGTHIDAPSHLLADGRSLDAFDVSAFRFDAHVVDCTGYGPEDAIPVDRVPALDDHDMVVFNTGTAADWGRPEYYEHPHLSVAAAERCADAGCAVAVDAPSVDPTRTAPAGESSDAAAYPAHRALLGAGALIVENVTNLDGLPERVPVQAYPLPVAADGAPARVIAAPLEHHHHHH,soluble
